Measured values: patent US20220119534A1 (DRAGONFLY THERAPEUTICS, published 2022)
Numbering of substitutions follows the chain as printed. In names and notes the source's numbering stands. Several values for one entry are separate records, joined by “and”; a condition that tells them apart may be missing. Identical values can stand only once.

How the values were obtained:
Human CLEC12A-His = target: T1, Human CLEC12A-His (human, UniProt Q5QGZ9 65-265); assay: SPR Biacore 8K 37 C; TriNKET captured on anti-hFc chip, hCLEC12A-His as analyte; 1:1 fit; after 4 wks 40 C in phosphate/citrate/NaCl pH 7.8, n=2
T1 construct: Recombinant soluble protein made in house (Dragonfly Tx); The hCLEC12A spot of the HuProt array is written under this molecule as well; also called hCLEC12A-His; hCLEC12A; not shown: His tag
T1 sequence: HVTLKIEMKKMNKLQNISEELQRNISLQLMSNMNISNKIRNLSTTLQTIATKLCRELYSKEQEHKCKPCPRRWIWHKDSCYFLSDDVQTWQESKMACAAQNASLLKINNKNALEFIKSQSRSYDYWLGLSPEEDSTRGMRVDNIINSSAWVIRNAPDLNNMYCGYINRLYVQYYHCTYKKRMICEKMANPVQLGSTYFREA

Human CD32b (FcγRIIb) = target: T2, Human CD32b (FcγRIIb) (human, UniProt P31994 46-217, limits assumed, biotinylated); assay: SPR 25C, average
T2 construct: Bought recombinant receptor; also called hFcγRIIb; CD32b (FcγR2b)
T2 sequence (looked up): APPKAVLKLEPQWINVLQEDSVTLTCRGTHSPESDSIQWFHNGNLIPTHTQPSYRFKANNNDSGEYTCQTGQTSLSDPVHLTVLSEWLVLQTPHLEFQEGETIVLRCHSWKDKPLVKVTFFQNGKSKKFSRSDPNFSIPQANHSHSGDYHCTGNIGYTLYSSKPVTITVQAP

Human CD16b (FcγRIIIb) = target: T3, Human CD16b (FcγRIIIb) (human, UniProt O75015 17-200, limits assumed, biotinylated); assay: SPR 25C, average
T3 construct: Bought recombinant receptor; also called hFcγRIIIb; CD16b (FcγR3b)
T3 sequence (O75015 17-200 limits assumed): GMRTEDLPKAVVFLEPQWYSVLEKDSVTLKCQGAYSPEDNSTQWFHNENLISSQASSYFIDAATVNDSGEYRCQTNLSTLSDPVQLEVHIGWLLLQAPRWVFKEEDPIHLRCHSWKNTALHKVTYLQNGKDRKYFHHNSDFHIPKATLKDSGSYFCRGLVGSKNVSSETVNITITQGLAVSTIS

[1] = target: T4, Human CLEC12A-His (recombinant, K244 WT) (human, UniProt Q5QGZ9 65-265); assay: SPR, two-state fit; control sample
T4 construct: Made in house (Dragonfly Tx); also called hCLEC12A; hCLEC12A-His; not shown: His tag
T4 sequence: T1 sequence

[2] = target: T4, Human CLEC12A-His (recombinant, K244 WT); assay: SPR, two-state fit (kd1); control sample
Method: (§1) Briefly, human Fc specific antibodies were covalently immobilized at a density ˜8000-10000 resonance units (RU) on carboxy methyl dextran matrix of a CM5 biosensor chip via amine-coupling chemistry to create an anti-hFc IgG chip. […] Association was monitored for 300 seconds and dissociation was monitored for 600 seconds. Surfaces were regenerated between cycles with three pulses of 10 mM glycine-HCl, pH 1.7 injected for 20 seconds at 100 μl/min. HBS-EP+ (1×) with 0.1 mg/ml BSA was used as running buffer throughout the experiment. Experiments were performed at physiological temperature of 37° C. To obtain kinetic rate constants and overall binding affinity, double-referenced data were fit to a two-state kinetic model using Biacore 8K Insight Evaluation software (Cytiva).

Human FcRn = target: T5, Human FcRn (human, UniProt P55899 24-297; P61769 21-119); assay: SPR 25C, pH 6.0, FcRn on chip, steady state fit
T5 construct: Bought recombinant receptor; also called hFcRn
Method: Recombinant human or cynomolgus monkey (cyno) FcRn was captured on a surface of an SA series S chip at a concentration of 0.25 μg/mL for 1 minute. […] Each FcRn binding experiment consisted of multiple cycles utilizing varying concentrations of analytes. […] 0 nM blank cycle placed at the start of each concentration series and a blank amine coupling modified chip surface lacking FcRn were used for referencing. Each experimental cycle included association, dissociation and regeneration steps. The association step consisted of 60 sec analyte injection and was followed by a 60 sec dissociation step. Surface regeneration (60 sec injection of HBS-EP+ buffer, pH 7.4) completed each kinetic cycle. All steps were executed at a flow rate of 30 μL/min and at 25° C. MBS-EP+ buffer, pH 6.0 was used as a running buffer. The data were fitted to a steady state affinity model with Biacore Insight evaluation software. Chi² (calculated by the software) related to the calculated Rₘₐₓ was used to assess goodness of the fit. All reported values were rounded to one decimal place.

[3] = target: T4, Human CLEC12A-His (recombinant, K244 WT); assay: SPR, two-state fit (kd1); after forced oxidation
Method: as §1

[4] = target: T4, Human CLEC12A-His (recombinant, K244 WT); assay: SPR 37C, AB0089 captured on anti-hFc, two-state fit
Method: as §1

mFc-hNKG2D = target: T6, mFc-hNKG2D (human, UniProt P26718 73-216); assay: SPR, 37 C, mFc-hNKG2D captured, steady state fit
T6 construct: extracellular domain; Recombinant mFc-tagged NKG2D dimer, made in house; also called human NKG2D; not shown: mouse Fc tag
T6 sequence (looked up): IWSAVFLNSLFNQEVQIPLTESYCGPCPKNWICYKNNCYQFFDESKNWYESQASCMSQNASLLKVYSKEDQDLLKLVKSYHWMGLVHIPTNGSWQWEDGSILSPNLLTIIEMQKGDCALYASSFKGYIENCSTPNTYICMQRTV

[5] = target: T7, recombinant human CLEC12A-His (human, UniProt Q5QGZ9 65-265); assay: SPR 37C
T7 construct: also called hCLEC12A-His; hCLEC12A
T7 sequence: T1 sequence

recombinant human CD64 = target: T8, recombinant human CD64 (human, UniProt P12314 16-288, biotinylated); assay: SPR, summary table
T8 construct: also called hFcγRI; hCD64
T8 sequence (P12314 16-288 limits assumed): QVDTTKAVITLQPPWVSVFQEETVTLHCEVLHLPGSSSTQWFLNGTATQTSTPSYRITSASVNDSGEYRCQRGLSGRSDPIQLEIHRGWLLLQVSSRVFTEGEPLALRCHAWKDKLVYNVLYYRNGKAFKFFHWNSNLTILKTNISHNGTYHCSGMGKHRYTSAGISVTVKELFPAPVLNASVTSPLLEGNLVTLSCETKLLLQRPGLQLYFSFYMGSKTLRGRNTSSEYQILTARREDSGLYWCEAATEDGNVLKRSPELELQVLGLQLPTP
From the text: (§2) Human and cyno CD64, high and low affinity alleles of CD16a (V158 and F158, respectively), two alleles of CD32a (H131 and R131), CD16b, CD32b and cynomolgus CD16 were captured via biotin on a primed Biacore chip, prepared according to the manufacturer's instructions.

[6] = target: T9, recombinant human CD16a V158 (human, UniProt P08637 17-208, biotinylated); assay: SPR, summary table
T9 construct: also called FcγRIIIa V158; hCD16aV
T9 sequence (P08637 17-208 F176V limits assumed): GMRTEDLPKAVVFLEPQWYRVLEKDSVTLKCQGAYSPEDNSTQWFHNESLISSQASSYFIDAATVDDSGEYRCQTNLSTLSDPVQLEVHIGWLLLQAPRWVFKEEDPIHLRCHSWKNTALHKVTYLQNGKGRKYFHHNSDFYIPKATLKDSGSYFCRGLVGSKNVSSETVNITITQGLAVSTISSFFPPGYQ
From the text: as §2

[7] = target: T10, recombinant human CD16a F158 (human, UniProt P08637 17-208); assay: SPR, summary table
T10 construct: also called FcγRIIIa F158
T10 sequence (P08637 17-208 limits assumed): as the sequence (P08637 17-208 F176V limits assumed) above, with V160F counted along it
From the text: as §2

recombinant human CD32b = target: T11, recombinant human CD32b (human, UniProt P31994 46-217, limits assumed, biotinylated); assay: SPR, summary table
T11 construct: also called FcγRIIb
T11 sequence (looked up): T2 sequence (looked up)
From the text: as §2

recombinant human CD16b [8] = target: T12, recombinant human CD16b (human, UniProt O75015 17-200, limits assumed, biotinylated); assay: SPR, summary table
T12 construct: also called FcγRIIIb
T12 sequence (O75015 17-200 limits assumed): as the sequence (O75015 17-200 limits assumed) above
From the text: as §2

[9] = target: T13, recombinant cynomolgus CD16 (cynomolgus monkey, UniProt Q8SPW2 17-208, biotinylated); assay: SPR, summary table
T13 construct: also called cFcγRIII; cyno CD16
T13 sequence (Q8SPW2 17-208 limits assumed): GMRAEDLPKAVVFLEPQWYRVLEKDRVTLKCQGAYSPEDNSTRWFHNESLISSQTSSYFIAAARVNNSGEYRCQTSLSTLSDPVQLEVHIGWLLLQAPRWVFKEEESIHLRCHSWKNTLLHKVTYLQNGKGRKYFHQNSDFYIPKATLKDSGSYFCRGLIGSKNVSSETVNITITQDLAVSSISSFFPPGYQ
From the text: as §2

recombinant human CD16b [10] = target: T12, recombinant human CD16b; assay: SPR 25C, steady state
[11] = target: T13, recombinant cynomolgus CD16; assay: SPR 25C, steady state, average
From the text: as §2

[12] = target: T14, human CLEC12A expressed on cells (human, UniProt Q5QGZ9 1-265); assay: flow cytometry, hCLEC12A+ Ba/F3
T14 construct: Transduced isogenic cells or endogenous expression on AML cells; also called RMA-hCLEC12A; Ba/F3-hCLEC12A
T14 sequence: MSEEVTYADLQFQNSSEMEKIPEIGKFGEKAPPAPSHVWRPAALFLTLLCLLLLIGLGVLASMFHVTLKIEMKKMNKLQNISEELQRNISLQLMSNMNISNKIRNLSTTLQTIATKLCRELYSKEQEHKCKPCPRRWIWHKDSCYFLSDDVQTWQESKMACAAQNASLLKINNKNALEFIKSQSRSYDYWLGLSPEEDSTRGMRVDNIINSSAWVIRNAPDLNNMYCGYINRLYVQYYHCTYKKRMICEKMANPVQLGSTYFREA

[13] = target: T15, recombinant cynomolgus FcRn (cynomolgus monkey, UniProt Q8SPV9 24-297; Q8SPW0 21-119); assay: SPR 25C, pH 6.0, steady state; pH 6.0; first replicate
T15 construct: also called cFcRn; cyno FcRn
T15 sequence (Q8SPV9 24-297 limits assumed, chain 1 of 2): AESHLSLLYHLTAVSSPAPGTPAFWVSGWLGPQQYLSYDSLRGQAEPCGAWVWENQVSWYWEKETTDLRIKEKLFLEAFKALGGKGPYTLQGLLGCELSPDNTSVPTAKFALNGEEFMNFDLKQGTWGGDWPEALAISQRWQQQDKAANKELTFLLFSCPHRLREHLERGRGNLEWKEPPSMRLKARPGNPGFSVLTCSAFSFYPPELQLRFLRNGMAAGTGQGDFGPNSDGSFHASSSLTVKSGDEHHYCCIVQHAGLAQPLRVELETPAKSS
T15 sequence (Q8SPW0 21-119 limits assumed, chain 2 of 2): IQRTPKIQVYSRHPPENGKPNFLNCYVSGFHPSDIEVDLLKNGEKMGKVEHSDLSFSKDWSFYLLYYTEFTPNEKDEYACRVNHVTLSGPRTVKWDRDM
Method: Each FcRn binding experiment consisted of multiple cycles utilizing varying concentrations of analytes. […] As no-signal, negative controls, a 0 nM blank cycle was placed at the start of each concentration series, and a blank amine coupling modified chip surface lacking FcRn were used. Each experimental cycle included association, dissociation, and regeneration steps. The association step consisted of 60 sec analyte injection and was followed by a 60 sec dissociation step. Surface regeneration (60 sec injection of HBS-EP+ buffer, pH 7.4) completed each kinetic cycle. All steps were executed at a flow rate of 30 μL/min and at 25° C. MBS-EP+ buffer, pH 6.0 was used as a running buffer. The data were fitted to a steady state affinity model with Biacore Insight evaluation software. Chi² (calculated by the software) related to the calculated Rₘₐₓ was used to assess goodness of the fit.

B1: F3'-1602 TriNKET (bispecific antibody, human IgG1, kappa)
chain: QLQLQESGPGLVKPSETLSLTCTVSGFSLTNYGLHWIRQPPGKCLEWIGVIWSGGKTDYNPSLKSRVTISKDTSKNQFSLKLSSVQAADTAVYYCAKYDYDDSLDYWGQGTLVTVSSGGGGSGGGGSGGGGSGGGGSDIQMTQSPSSLSASVGDRVTITCHASQNINFWLSWYQQKPGKAPKLLIYEASNLHTGVPSRFSGSGSGTRFTLTISSLQPEDIATYYCQQSHSYPLTFGCGTKLEIKGSDKTHTCPPCPAPELLGGPSVFLFPPKPKDTLMISRTPEVTCVVVDVSHEDPEVKFNWYVDGVEVHNAKTKPREEQYNSTYRVVSVLTVLHQDWLNGKEYKCKVSNKALPAPIEKTISKAKGQPREPRVYTLPPCRDELTKNQVSLTCLVKGFYPSDIAVEWESNGQPENNYKTTPPVLVSDGSFTLYSKLTVDKSRWQQGNVFSCSVMHEALHNHYTQKSLSLSPG
heavy: EVQLVESGGGLVKPGGSLRLSCAASGFTFSSYSMNWVRQAPGKGLEWVSSISSSSSYIYYADSVKGRFTISRDNAKNSLYLQMNSLRAEDTAVYYCARGAPIGAAAGWFDPWGQGTLVTVSSASTKGPSVFPLAPSSKSTSGGTAALGCLVKDYFPEPVTVSWNSGALTSGVHTFPAVLQSSGLYSLSSVVTVPSSSLGTQTYICNVNHKPSNTKVDKKVEPKSCDKTHTCPPCPAPELLGGPSVFLFPPKPKDTLMISRTPEVTCVVVDVSHEDPEVKFNWYVDGVEVHNAKTKPREEQYNSTYRVVSVLTVLHQDWLNGKEYKCKVSNKALPAPIEKTISKAKGQPREPQVCTLPPSRDELTENQVSLTCLVKGFYPSDIAVEWESNGQPENNYKTTPPVLDSDGSFFLYSWLTVDKSRWQQGNVFSCSVMHEALHNHYTQKSLSLSPG
light: DIQMTQSPSSVSASVGDRVTITCRASQGISSWLAWYQQKPGKAPKLLIYAASSLQSGVPSRFSGSGSGTDFTLTISSLQPEDFATYYCQQGVSFPRTFGGGTKVEIKRTVAAPSVFIFPPSDEQLKSGTASVVCLLNNFYPREAKVQWKVDNALQSGNSQESVTEQDSKDSTYSLSSTLTLSKADYEKHKVYACEVTHQGLSSPVTKSFNRGEC
notes: Trispecific F3' format: CLEC12A scFv-Fc paired with NKG2D Fab-Fc; Stressed and control samples of the stability studies are the same molecule; also called AB0237
A Kd (Human CLEC12A-His) of 1.14 nM, a koff (Human CLEC12A-His) of 0.000948 s⁻¹ and a kon (Human CLEC12A-His) of 829000 M⁻¹ s⁻¹ were found for B1 in this work.

B2: AB0089 TriNKET (bispecific antibody, human IgG1, kappa)
chain: B1 chain with S53V, K56A, K71V, Y98G, D101G, S103T, R207D, I220F
heavy: B1 heavy
light: B1 light
notes: F3' format heterodimer of three chains; human IgG1 Fc with EW-RVT and Y349C/S354C mutations; also called AB0089 Lot AB0089-002; CLEC12A TriNKET AB0089
A Kd (Human CD32b (FcγRIIb)) of 6300 nM, a Kd (Human CD16b (FcγRIIIb)) of 8900 nM and a Kd [1] of 0.9 nM were found for B2 in this work. It also gave a koff [2] of 0.0476 s⁻¹, a Kd (Human FcRn) of 1100 nM and a koff [3] of 0.0481 s⁻¹. For the same binder, the Kd [4] was 0.69 nM and 0.75 nM and 0.78 nM.

B3: AB0192 TriNKET (other)
chain: EVQLVESGGGVVQPGGSLRLSCAASGFTFNAFGMHWVRQAPGKCLEWVAFISSGSTSIYYANTVKGRFTISRDNSKNTLYLQMNSLRAEDTAVYYCARDGYPTGGAMDYWGQGTSVTVSSGGGGSGGGGSGGGGSGGGGSDIQMTQSPSSLSASVGDRVTITCKASQDIYNYLSWFQQKPGKAPKPLIYRANILVSGVPSRFSGSGSGQDYTFTISSLQPEDIATYYCLQFDAFPFTFGCGTKLEIKGSDKTHTCPPCPAPELLGGPSVFLFPPKPKDTLMISRTPEVTCVVVDVSHEDPEVKFNWYVDGVEVHNAKTKPREEQYNSTYRVVSVLTVLHQDWLNGKEYKCKVSNKALPAPIEKTISKAKGQPREPRVYTLPPCRDELTKNQVSLTCLVKGFYPSDIAVEWESNGQPENNYKTTPPVLVSDGSFTLYSKLTVDKSRWQQGNVFSCSVMHEALHNHYTQKSLSLSPG
heavy: B1 heavy
light: B1 light
notes: the condition stands under assay; also called AB0192 Lot AB0192-005
For B3, the Kd (mFc-hNKG2D) was 770 nM and 783 nM and 788 nM.

B4: F3'-1602 TriNKET (other)
chain: B1 chain
heavy: B1 heavy
light: B1 light
notes: CLEC12A scFv-Fc, NKG2D A49MI Fab-Fc, human IgG1 Fc; also called AB0237
In the case of B4, the “fold lower KD than F3'-1295” value [5] is reported as ~2 fold, the Kd (recombinant human CD64) is reported as 5.2 nM and the Kd [6] is reported as 238 nM. For the same binder, the Kd [7] was 1110 nM, the Kd (recombinant human CD32b) was 6600 nM and the Kd (recombinant human CD16b [8]) was 7500 nM. The Kd [9] was 306 nM, the Kd (recombinant human CD16b [10]) was 7600 nM and 7200 nM and 8600 nM and 6500 nM and the Kd [11] was 306 nM. For the same binder, the EC50 [12] was 3.2 nM and the Kd [13] was 1100 nM.
